Measurements reported in patent US20240360223A1 (DRAGONFLY THERAPEUTICS, published 2024).
Where a chain is given by its changes, count along the chain named. Several values for one entry are separate records, joined by “and”; a condition that tells them apart may be missing. Identical values can stand only once.

Tests used:
[1] = target: T1, cynomolgus NKG2D (recombinant mFc-tagged dimer) (cynomolgus, UniProt P61252 78-216); experiment: SPR
T1 construct: also called cyno NKG2D
T1 sequence (looked up): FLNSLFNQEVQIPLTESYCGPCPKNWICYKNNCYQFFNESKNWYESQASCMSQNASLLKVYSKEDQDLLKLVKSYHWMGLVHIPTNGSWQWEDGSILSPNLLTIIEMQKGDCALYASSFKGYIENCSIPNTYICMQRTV
Text: (§1) Two different fits were utilized to obtain the equilibrium affinity data: steady state affinity fit and kinetic fit.

[2] = target: T1, cynomolgus NKG2D (recombinant …); experiment: SPR, average
cynomolgus CD16 [3] = target: T2, cynomolgus CD16 (cynomolgus, UniProt Q8SPW2 17-208, limits assumed); experiment: SPR, average
T2 construct: also called Cyno CD16; cynomolgus FcγRIII

human CD32a H131 [4] = target: T3, human CD32a H131 (human, UniProt P12318 36-218, limits assumed); experiment: SPR, steady state
T3 sequence (looked up): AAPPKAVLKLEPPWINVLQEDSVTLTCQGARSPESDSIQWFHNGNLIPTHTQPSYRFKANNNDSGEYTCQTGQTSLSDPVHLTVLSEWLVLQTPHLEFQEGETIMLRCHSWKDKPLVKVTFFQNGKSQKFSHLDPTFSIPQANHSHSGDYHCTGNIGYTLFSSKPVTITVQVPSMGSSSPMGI

human CD16a V158 = target: T4, human CD16a V158 (human, UniProt P08637 17-208); experiment: SPR, summary table
T4 construct: also called hCD16aV; hCD16a V158

human CD16a F158 = human CD16a F158 (human, UniProt P08637 17-208); experiment: SPR, summary table
cynomolgus CD16 [5] = target: T2, cynomolgus CD16; experiment: SPR, summary table
human CD64 = target: T5, human CD64 (human, UniProt P12314 16-288, limits assumed); experiment: SPR, summary table
T5 construct: also called FcγRI

human CD32a H131 [6] = target: T3, human CD32a H131; experiment: SPR, summary table
human CD32a R131 = target: T6, human CD32a R131 (human, UniProt P12318 36-218, limits assumed); experiment: SPR, summary table
T6 construct: also called FcγRIIa R131
T6 sequence (looked up): T3 sequence (looked up) with H132R

human CD32b [7] = target: T7, human CD32b (human, UniProt P31994 46-217, limits assumed); experiment: SPR, summary table
T7 construct: also called FcγRIIb
T7 sequence (looked up): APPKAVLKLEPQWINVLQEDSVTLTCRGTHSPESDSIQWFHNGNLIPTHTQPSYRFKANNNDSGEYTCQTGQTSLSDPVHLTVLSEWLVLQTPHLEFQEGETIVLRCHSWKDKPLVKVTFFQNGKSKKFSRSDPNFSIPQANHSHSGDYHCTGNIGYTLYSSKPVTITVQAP

human CD16b = target: T8, human CD16b (human, UniProt O75015 17-200, limits assumed); experiment: SPR, summary table
T8 construct: also called FcγRIIIb

[8] = target: T9, human NKG2D (recombinant mFc-tagged dimer) (human, UniProt P26718 78-216); experiment: SPR, steady state fit
T9 construct: also called hNKG2D
T9 sequence (looked up): T1 sequence (looked up) with N38D, I128T
Text: NKG2D is a native dimer, therefore recombinant mFc-tagged NKG2D dimer was used for this experiment. Two different fits were utilized to obtain the equilibrium affinity data: steady state affinity fit and kinetic fit.

[9] = target: T1, cynomolgus NKG2D (recombinant …); experiment: SPR, steady state fit
Text: as §1

human CD32b [10] = target: T7, human CD32b; experiment: SPR, steady state, average
[11] = target: T1, cynomolgus NKG2D (recombinant …); experiment: SPR, kinetics fit, average
Text: as §1

[12] = target: T10, human BAFF-R expressed on cells (human, UniProt Q96RJ3 1-184); experiment: flow cytometry, BJAB cells, control
T10 construct: Cell surface BAFF-R, endogenous on B cell lines and primary B cells or overexpressed on isogenic CHO cells; also called hBAFF-R; hBAFF-R-CHO

[13] = target: T10, human BAFF-R expressed on cells; experiment: flow cytometry, human BAFF-R CHO cells
Text: Isogenic cell lines overexpressing human and cynomolgus BAFF-R on the backbone of CHO cell line were designed.

[14] = target: T9, human NKG2D (recombinant mFc-tagged …); experiment: SPR, high concentration sample, control
human FcRn = human FcRn (human, UniProt P55899 24-297; P61769 21-119); experiment: SPR, pH 6.0, steady state; pH 6.0; fourth replicate
[15] = target: T11, BCMA expressed on C6 cells (UniProt Q02223 1-184, limits assumed); experiment: flow cytometry on BCMA-C6 cells, anti-human Fc-g-PE
T11 construct: whole, on cells; also called BCMA-C6; isogenic BCMA+ cells
T11 sequence (looked up): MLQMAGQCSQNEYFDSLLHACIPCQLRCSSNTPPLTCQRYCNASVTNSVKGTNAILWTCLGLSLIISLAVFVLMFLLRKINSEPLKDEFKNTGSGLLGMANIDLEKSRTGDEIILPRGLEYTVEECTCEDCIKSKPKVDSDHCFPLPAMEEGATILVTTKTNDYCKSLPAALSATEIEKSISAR
Text: A mAb with known BCMA specificity (EM901) was used as a positive control for BCMA detection.

T2 sequence (Q8SPW2 17-208 limits assumed): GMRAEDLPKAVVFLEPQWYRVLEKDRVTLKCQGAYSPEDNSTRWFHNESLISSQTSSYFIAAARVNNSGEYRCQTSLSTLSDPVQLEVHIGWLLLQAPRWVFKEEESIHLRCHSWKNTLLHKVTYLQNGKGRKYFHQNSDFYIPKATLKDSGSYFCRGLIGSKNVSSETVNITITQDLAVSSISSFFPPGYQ
Sequence of human FcRn (P55899 24-297 limits assumed, chain 1 of 2): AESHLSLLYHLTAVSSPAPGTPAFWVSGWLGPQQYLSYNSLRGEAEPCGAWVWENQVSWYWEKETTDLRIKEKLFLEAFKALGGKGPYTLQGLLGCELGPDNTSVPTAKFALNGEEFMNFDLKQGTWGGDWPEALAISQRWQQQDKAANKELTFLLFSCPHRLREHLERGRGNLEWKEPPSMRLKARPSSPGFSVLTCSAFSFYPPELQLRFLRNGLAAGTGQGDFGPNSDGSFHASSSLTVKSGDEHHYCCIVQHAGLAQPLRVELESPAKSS
Sequence of human FcRn (P61769 21-119 limits assumed, chain 2 of 2): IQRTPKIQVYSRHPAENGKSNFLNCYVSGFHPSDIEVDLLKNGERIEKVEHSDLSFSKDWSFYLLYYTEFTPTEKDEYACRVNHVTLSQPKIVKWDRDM
T4 sequence (P08637 17-208 F176V limits assumed): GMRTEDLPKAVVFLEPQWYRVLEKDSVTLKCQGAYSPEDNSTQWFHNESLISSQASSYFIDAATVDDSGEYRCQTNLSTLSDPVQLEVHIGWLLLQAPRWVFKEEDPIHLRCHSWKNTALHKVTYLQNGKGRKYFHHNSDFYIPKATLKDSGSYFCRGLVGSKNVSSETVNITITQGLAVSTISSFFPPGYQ
T8 sequence (O75015 17-200 limits assumed): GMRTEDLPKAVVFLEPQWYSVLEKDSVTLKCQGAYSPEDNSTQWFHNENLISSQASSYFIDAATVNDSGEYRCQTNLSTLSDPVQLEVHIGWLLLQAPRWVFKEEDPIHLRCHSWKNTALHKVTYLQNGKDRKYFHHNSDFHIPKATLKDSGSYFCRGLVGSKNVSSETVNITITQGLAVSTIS
T5 sequence (P12314 16-288 limits assumed): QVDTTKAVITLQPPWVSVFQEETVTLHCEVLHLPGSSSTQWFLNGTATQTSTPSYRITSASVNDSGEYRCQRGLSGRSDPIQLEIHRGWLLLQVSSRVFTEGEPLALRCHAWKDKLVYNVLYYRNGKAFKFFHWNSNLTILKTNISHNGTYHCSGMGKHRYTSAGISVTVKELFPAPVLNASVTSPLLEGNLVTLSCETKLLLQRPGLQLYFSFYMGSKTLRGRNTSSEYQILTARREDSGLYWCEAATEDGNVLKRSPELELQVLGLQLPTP
Sequence of human CD16a F158 (P08637 17-208 limits assumed): as the sequence (P08637 17-208 F176V limits assumed) above, with V160F counted along it

B1: AB1424/AB1612 F3′ TriNKET (bispecific antibody, human IgG1, kappa)
chain: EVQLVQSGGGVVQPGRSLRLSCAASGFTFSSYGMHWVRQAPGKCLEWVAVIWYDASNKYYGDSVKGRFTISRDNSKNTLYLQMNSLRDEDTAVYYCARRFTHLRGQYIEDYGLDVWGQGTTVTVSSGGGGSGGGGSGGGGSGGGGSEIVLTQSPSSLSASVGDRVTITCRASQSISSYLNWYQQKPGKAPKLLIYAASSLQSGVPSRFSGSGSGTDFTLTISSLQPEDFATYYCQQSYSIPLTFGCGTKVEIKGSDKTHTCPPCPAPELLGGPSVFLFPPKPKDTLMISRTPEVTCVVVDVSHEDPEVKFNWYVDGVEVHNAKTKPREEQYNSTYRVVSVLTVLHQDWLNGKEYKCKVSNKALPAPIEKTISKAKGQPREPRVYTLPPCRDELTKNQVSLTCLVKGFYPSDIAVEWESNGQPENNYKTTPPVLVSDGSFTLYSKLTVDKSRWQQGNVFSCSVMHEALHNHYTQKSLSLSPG
heavy: EVQLVESGGGLVKPGGSLRLSCAASGFTFSSYSMNWVRQAPGKGLEWVSSISSSSSYIYYADSVKGRFTISRDNAKNSLYLQMNSLRAEDTAVYYCARGAPIGAAAGWFDPWGQGTLVTVSSASTKGPSVFPLAPSSKSTSGGTAALGCLVKDYFPEPVTVSWNSGALTSGVHTFPAVLQSSGLYSLSSVVTVPSSSLGTQTYICNVNHKPSNTKVDKKVEPKSCDKTHTCPPCPAPELLGGPSVFLFPPKPKDTLMISRTPEVTCVVVDVSHEDPEVKFNWYVDGVEVHNAKTKPREEQYNSTYRVVSVLTVLHQDWLNGKEYKCKVSNKALPAPIEKTISKAKGQPREPQVCTLPPSRDELTENQVSLTCLVKGFYPSDIAVEWESNGQPENNYKTTPPVLDSDGSFFLYSWLTVDKSRWQQGNVFSCSVMHEALHNHYTQKSLSLSPG
light: DIQMTQSPSSVSASVGDRVTITCRASQGISSWLAWYQQKPGKAPKLLIYAASSLQSGVPSRFSGSGSGTDFTLTISSLQPEDFATYYCQQGVSFPRTFGGGTKVEIKRTVAAPSVFIFPPSDEQLKSGTASVVCLLNNFYPREAKVQWKVDNALQSGNSQESVTEQDSKDSTYSLSSTLTLSKADYEKHKVYACEVTHQGLSSPVTKSFNRGEC
notes: Chain S: anti-BAFF-R scFv-CH2-CH3; chain H: anti-NKG2D VH-CH1-CH2-CH3; chain L: anti-NKG2D VL-CL; also called AB1612-002
[1]
  koff: 0.11 s⁻¹ and 0.12 s⁻¹
  kon: 180000 M⁻¹ s⁻¹ and 190000 M⁻¹ s⁻¹
[2]
  koff: 0.11 s⁻¹
  kon: 200000 M⁻¹ s⁻¹
Cynomolgus CD16 [3]
  koff: 0.021 s⁻¹
  kon: 76000 M⁻¹ s⁻¹
Human CD32a H131 [4]
  Kd: 0.9 µM and 1.1 µM and 1 µM
Human CD16a V158
  Kd: 0.129 µM
Human CD16a F158
  Kd: 1.35 µM
Cynomolgus CD16 [5]
  Kd: 0.271 µM
Human CD64
  Kd: 0.0032 µM
Human CD32a H131 [6]
  Kd: 1 µM
Human CD32a R131
  Kd: 1.4 µM
Human CD32b [7]
  Kd: 5.9 µM
Human CD16b
  Kd: 6.9 µM
[8]
  Kd: 0.438 µM and 0.453 µM and 0.468 µM and 0.466 µM
[9]
  Kd: 0.618 µM and 0.63 µM and 0.589 µM and 0.6 µM
Human CD32b [10]
  Kd: 5.9 µM
[11]
  Kd: 0.597 µM
[12]
  EC50: 0.00082 µM
[13]
  EC50: 0.0009 µM
  Max FOB: 85 fold over background
[14]
  koff: 0.11 s⁻¹
  kon: 220000 M⁻¹ s⁻¹
Human FcRn
  Kd: 1.1 µM
[15]
  binding result: no binding (tested: about 50 nM)
